Assay results published in patent publication US20080108569A1, “Compositions and Methods for Treating Diseases Associated With Phlpp” (The Regents of the University of California, priority 2005, published 2008).

B1: PHLPP2 PP2C domain: GST-tagged PP2C domain of PHLPP2 (residues 780-1030) expressed in bacteria (protein)
chain: TSTFWSHGLAEMAGQRNKLCVSALAMDSFAEGVGAVYGMFDGDRNEELPRLLQCTMADVLLEEVQQSTNDTVFMANTFLVSHRKLGMAGQKLGSSALLCYIRPDTADPASSFSLTVANVGTCQAVLCRGGKPVPLSKVFSLEQDPEEAQRVKDQKAIITEDNKVNGVTCCTRMLGCTYLYPWILPKPHISSTPLTIQDELLILGNKALWEHLSYTEAVNAVRHVQDPLAAAKKLCTLAQSYGCQDNVGAMV
modifications: left off: a dimerising Fc or GST
notes: GST-tagged PP2C domain of PHLPP2 (residues 780-1030) expressed in bacteria
B2: PHLPP: PH domain Leucine rich repeat Protein Phosphatase; HA-PHLPP-1α construct transfected into LN229 glioblastoma cells (SEQ ID NO: 2) (protein, listed as Homo sapiens)
chain: MDSEIGCLIRFYAGKPHSTGSSERIQLSGMYNVRKGKMQLPVNRWTRRQVILCGTCLIVSSVKDSLTGKMHVLPLIGGKVEEVKKHQHCLAFSSSGPQSQTYYICFDTFTEYLRWLRQVSKVASQRISSVDLSCCSLEHLPANLFYSQDLTHLNLKQNFLRQNPSLPAARGLNELQRFTKLKSLNLSNNHLGDFPLAVCSIPTLAELNVSCNALRSVPAAVGVMHNLQTFLLDGNFLQSLPAELENMKQLSYLGLSFNEFTDIPEVLEKLTAVDKLCMSGNCVETLRLQALRKMPHIKHVDLRLNVIRKLIADEVDFLQHVTQLDLRDNKLGDLDAMIFNNIEVLHCERNQLVTLDICGYFLKALYASSNELVQLDVYPVPNYLSYMDVSRNRLENVPEWVCESRKLEVLDIGHNQICELPARLFCNSSLRKLLAGHNQLARLPERLERTSVEVLDVQHNQLLELPPNLLMKADSLRFLNASANKLESLPPATLSEETNSILQELYLTNNSLTDKCVPLLTGHPHLKILHMAYNRLQSFPASKMAKLEELEEIDLSGNKLKAIPTTIMNCRRMHTVIAHSNCIEVFPEVMQLPEIKCVDLSCNELSEVTLPENLPPKLQELDLTGNPRLVLDHKTLELLNNIRCFKIDQPSTGDASGAPAVWSHGYTEASGVKNKLCVAALSVNNFCDNREALYGVFDGDRNVEVPYLLQCTMSDILAEELQKTKNEEEYMVNTFIVMQRKLGTAGQKLGGAAVLCHIKHDPVDPGGSFTLTSANVGKCQTVLCRNGKPLPLSRSYIMSCEEELKRIKQHKAIITEDGKVNGVTESTRILGYTFLHPSVVPRPHVQSVLLTPQDEFFILGSKGLWDSLSVEEAVEAVRNVPDALAAAKKLCTLAQSYGCHDSISAVVVQLSVTEDSFCCCELSAGGAVPPPSPGIFPPSVNMVIKDRPSDGLGVPSSSSGMASEISSELSTSEMSSEVGSTASDEPPPGALSENSPAYPSEQRCMLHPICLSNSFQRQLSSATFSSAFSDNGLDSDDEEPIEGVFTNGSRVEVEVDIHCSRAKEKEKQQHLLQVPAEASDEGIVISANEDEPGLPRKADFSAVGTIGRRRANGSVAPQERSHNVIEVATDAPLRKPGGYFAAPAQPDPDDQFIIPPELEEEVKEIMKHHQEQQQQQQPPPPPQLQPQLPRHTQLDQLPDYYDTPL
modifications: HA tag

How the values were obtained:
Akt = target: T1, Akt (Homo sapiens, UniProt P31749); assay: phosphatase assay with purified GST-tagged PHLPP2 PP2C domain and pure phosphorylated Akt; assay type: biochemical; conditions: in 5 minutes, pure
T1 construct: 6His; made in house; host or cells: Akt1: baculovirus-infected Sf21 cells; HA-PHLPP2: transfected 293T cells, immunoprecipitated with HA antibody
T1 sequence (P31749 whole entry, the tested form may be a part): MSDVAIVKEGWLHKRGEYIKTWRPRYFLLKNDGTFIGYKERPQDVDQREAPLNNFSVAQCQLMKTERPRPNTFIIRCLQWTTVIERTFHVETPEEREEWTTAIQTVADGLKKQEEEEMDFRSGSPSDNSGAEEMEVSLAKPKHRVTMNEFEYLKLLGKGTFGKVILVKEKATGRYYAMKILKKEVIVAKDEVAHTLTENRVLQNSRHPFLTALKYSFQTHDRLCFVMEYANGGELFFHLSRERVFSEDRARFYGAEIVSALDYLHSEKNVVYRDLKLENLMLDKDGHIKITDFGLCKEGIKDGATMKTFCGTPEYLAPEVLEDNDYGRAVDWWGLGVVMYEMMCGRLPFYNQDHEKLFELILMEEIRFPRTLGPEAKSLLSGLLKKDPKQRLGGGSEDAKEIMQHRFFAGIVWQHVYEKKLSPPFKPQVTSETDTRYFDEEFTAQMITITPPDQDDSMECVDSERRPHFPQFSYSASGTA
Description: A GST-fusion protein of PHLPP-1α-PP2C was expressed in BL21 (DE3) and purified using glutathione-Sepharose. The GST-PP2C proteins were eluted from the beads in PBS containing 10 mM glutathione and 1 mM DTT, and dialyzed against 50 mM Tris (pH 7.4) and 1 mM DTT. His-tagged Akt was expressed and purified from baculovirus-infected Sf21 cells. Briefly, Sf21 cells were maintained in SF-900 II media (Invitrogen) and infected with baculovirus encoding His-Akt for 3 days. To obtain maximally phosphorylated Akt as substrate, the infected cells were treated with 10% FBS and calyculin A (100 nM) for 15 minutes prior to lysis. The infected cells were lysed in PBS containing 1% Triton X-100 and 10 mM imidazole, and His-Akt proteins were purified using Ni-NTA beads (Qiagen). The dephosphorylation reactions were carried out in a reaction buffer containing 50 mM Tris (pH 7.4), 1 mM DTT and 5 mM MnCl2 at 30° C. for 0-30 minutes. […]
GST-PP2C was expressed in BL21 bacterial cells; phosphatase assays were performed using the purified GST-PP2C construct conjugated to glutathione-sepharose and pure Akt as a substrate as described above. The activity of full length HA-PHLPP2 was assessed by expressing and immunoprecipitating PHLPP2 from 293T or H157 cell lysates. […]

LN229 cells [1] = assay: growth rate of glioblastoma cells transfected with PHLPP (viable cells in G418 media); assay type: cell-based, human; conditions: glioblastoma cell line wild-type in PTEN
Description: (§1) LN229 cells were transfected with vector, HA-PHLPP or HA-ΔC. Approximately 30 hours post-transfection, the cells were switched to selection media (DMEM, 10% FBS, 1% penicillin/streptomycin and 800 μg/ml G418). The viable cells were counted after 7 days in selection media. The number of viable cells reflects the effect of PHLPP on cell proliferation. The G418 resistant stable cells were propagated and expanded for an additional 2-3 passages to obtain the number of cells needed for mice injection. For subcutaneous inoculation, 3×10^6 or 5×10^6 cells were injected into 4- to 5-week old female nude mice of BALB/c background. The size of tumors was measured once a week with a caliper, and tumor volumes were defined as (longest diameter)×(shortest diameter)^2×0.5. Tumors were excised from individual mice and flash frozen in liquid N2. The tumor samples were homogenized in buffer A, and detergent-solubilized lysates were subjected to SDS-PAGE and Western blotting analysis.

LN229 cells [2] = assay: tumorigenicity of subcutaneously injected glioblastoma cells transfected with PHLPP; assay type: in vivo, nude mice of BALB/c background; conditions: subcutaneous injection
Description: as §1

| Molecule | dephosphorylation of Ser 473 (P473) (Akt) | dephosphorylation of Thr 308 (P308) (Akt) | decrease of the growth rate (LN229 cells [1]) | ability of the cells to induce tumors (LN229 cells [2]) |
| --- | --- | --- | --- | --- |
| B1 | 82+6% | 70+2% | – | – |
| B2 | – | – | approximately 50% | dramatically reduces |
